The supplement of paper PMC9170038

System: K4 kissing-loop RNA reporter
Experiment: apparent KD of K4 kissing-loop reporter; higher = weaker reporter binding
Conditions: Eterna round: R107
Procedure: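 RNA-MaP round R107: designed RNA switches with theophylline, tryptophan, arginine or FMN aptamers are transcribed on-chip within common flanks. They are titrated with a labelled K4 kissing-loop RNA reporter in RNA-MaP buffer (100 mM Tris pH 7.5, 80 mM KCl, 4 mM MgCl2), without ligand or with the indicated ligand. Median apparent KD per design.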

[1] = input ligand: theophylline 20 uM
[2] = input ligand: tryptophan 2.4 mM
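Also: bound reporter read as fluorescence of individual clusters on recovered sequencing chips by microscopy, with normalized cluster intensities fitted with a binding model.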

AGGCACGAGCAAGGAUAUUGAGUAGAGUGAUGUUCUGCCUGGGUUGGCUCGCAAGAGCCUUCUCAGCGAGAAGGUGCUCGUGCCU [#2 Same State - FMN A Attempt #25 (HarryS)]
apparent KD of K4 kissing-loop reporter (input ligand: FMN 200 uM): 286 nM | apparent KD of K4 kissing-loop reporter (input ligand: arginine 13.2 mM): 471 nM | apparent KD of K4 kissing-loop reporter (input ligand: none): 674 nM | apparent KD of K4 kissing-loop reporter [1]: 614 nM | apparent KD of K4 kissing-loop reporter [2]: 594 nM

AAUUUAUUAACUGAUACCAGACUUUAAUUUAUAUAUAUGUCUAGUGAUGUUAAACAUAUUGUCCCUUGGCAGCAGUAUUUAUUAA [JR_SSTheophyB_Sub020]
apparent KD of K4 kissing-loop reporter (input ligand: FMN 200 uM): 761 nM | apparent KD of K4 kissing-loop reporter (input ligand: arginine 13.2 mM): 399 nM | apparent KD of K4 kissing-loop reporter (input ligand: none): 755 nM | apparent KD of K4 kissing-loop reporter [1]: 768 nM | apparent KD of K4 kissing-loop reporter [2]: 536 nM

GGAGGGAUCUCGGCCGCCACUCAUAAGAAAUGGGCCUCAGGGAUAUAGUGAUGUUAUGUAAAGAAGAGGACCGGGAGAAAGAAGG [ExTryptoB.Dc]
apparent KD of K4 kissing-loop reporter (input ligand: FMN 200 uM): 263 nM | apparent KD of K4 kissing-loop reporter (input ligand: arginine 13.2 mM): 245 nM | apparent KD of K4 kissing-loop reporter (input ligand: none): 248 nM | apparent KD of K4 kissing-loop reporter [1]: 348 nM | apparent KD of K4 kissing-loop reporter [2]: 175 nM

GCAGUGAUGUUGCACGAGUAGGGUAGAGUGCGAGGACCGGUACGGCCGCCACUCGUAUGGAACUCGCUAAUUUAUGGAAUGGUGA [whbob_SS_tryp_A]
apparent KD of K4 kissing-loop reporter (input ligand: FMN 200 uM): 791 nM | apparent KD of K4 kissing-loop reporter (input ligand: arginine 13.2 mM): 828 nM | apparent KD of K4 kissing-loop reporter (input ligand: none): 1020 nM | apparent KD of K4 kissing-loop reporter [1]: 920 nM | apparent KD of K4 kissing-loop reporter [2]: 575 nM

AUGGUGGAUCAGUGAUGUUGGUGGAGUAGGUAGGAUAUGAGUGAUGUUAGAAGGAUCGGAGUGAUGUUCCAGGUGGUUGUGUUGU [KL-SSFMN-A3]
apparent KD of K4 kissing-loop reporter (input ligand: FMN 200 uM): 540 nM | apparent KD of K4 kissing-loop reporter (input ligand: arginine 13.2 mM): 302 nM | apparent KD of K4 kissing-loop reporter (input ligand: none): 548 nM | apparent KD of K4 kissing-loop reporter [1]: 516 nM | apparent KD of K4 kissing-loop reporter [2]: 389 nM

GUAGACAGACUGCAAGCCUAGUCUACAGACUAGGAUAUCAGGAAACUGAGAAGGAGUCUACUUGCAGUGAUGUUGCAAGAAUAAU [[F]''-[K]'-[F]'-[F1]-[F2]-[K1]-[K2]_Design4]
apparent KD of K4 kissing-loop reporter (input ligand: FMN 200 uM): 146 nM | apparent KD of K4 kissing-loop reporter (input ligand: arginine 13.2 mM): 126 nM | apparent KD of K4 kissing-loop reporter (input ligand: none): 121 nM | apparent KD of K4 kissing-loop reporter [1]: 111 nM | apparent KD of K4 kissing-loop reporter [2]: 119 nM

UGGUUUAACUGAAGGAGCGGCAAUUGAUAAGUAAAUAUAGUGAUGUUAUAUAAGAUAGAGAGCCAGGUAGGUCGCAGAGGUAUUU [ExArgB.O]
apparent KD of K4 kissing-loop reporter (input ligand: FMN 200 uM): 145 nM | apparent KD of K4 kissing-loop reporter (input ligand: arginine 13.2 mM): 147 nM | apparent KD of K4 kissing-loop reporter (input ligand: none): 141 nM | apparent KD of K4 kissing-loop reporter [1]: 143 nM | apparent KD of K4 kissing-loop reporter [2]: 141 nM

CACCUAGGUACGGCCGCCACUAGAAGUGAUGUUUCGUCUGGUUCCGCAUUACGUGUACUUUCUUAUAGGACCGGGUAGCAAAUAG [theeternabot_exclusion_KL_Trp_B_3]
apparent KD of K4 kissing-loop reporter (input ligand: FMN 200 uM): 548 nM | apparent KD of K4 kissing-loop reporter (input ligand: arginine 13.2 mM): 288 nM | apparent KD of K4 kissing-loop reporter (input ligand: none): 563 nM | apparent KD of K4 kissing-loop reporter [1]: 258 nM | apparent KD of K4 kissing-loop reporter [2]: 311 nM

AAGCUACGCGCGGCCGCCACUGUUUAUGUAUAAAUGCGUCGCUCACUGCUUUAGUGAUGUUGAAGCAGGACCGGGCGAAUGGUAC [theeternabot_exclusion_KL_Trp_B_15]
apparent KD of K4 kissing-loop reporter (input ligand: FMN 200 uM): 80.9 nM | apparent KD of K4 kissing-loop reporter (input ligand: arginine 13.2 mM): 75 nM | apparent KD of K4 kissing-loop reporter (input ligand: none): 79.6 nM | apparent KD of K4 kissing-loop reporter [1]: 76.5 nM | apparent KD of K4 kissing-loop reporter [2]: 82.7 nM

ACGUGCACCAGUGAUGUUGGAAAAUAUGAAGGAGCGUGCGAAAGCACAGGUAGGUCGCAUAAUAGCACGAGCCACGAAAGUGGCA [#SwitchBubble 6 #K4Early #Sliding]
apparent KD of K4 kissing-loop reporter (input ligand: FMN 200 uM): 131 nM | apparent KD of K4 kissing-loop reporter (input ligand: arginine 13.2 mM): 159 nM | apparent KD of K4 kissing-loop reporter (input ligand: none): 134 nM | apparent KD of K4 kissing-loop reporter [1]: 132 nM | apparent KD of K4 kissing-loop reporter [2]: 102 nM

UGACUGGACUGAAGGAGCGCUAAACUCCUAGUGAUGUUAGGAAAACGAGACAAAGUCUCGAAGCAGGUAGGUCGCAGUCUAGUCU
apparent KD of K4 kissing-loop reporter (input ligand: FMN 200 uM): 172 nM | apparent KD of K4 kissing-loop reporter (input ligand: arginine 13.2 mM): 147 nM | apparent KD of K4 kissing-loop reporter (input ligand: none): 177 nM | apparent KD of K4 kissing-loop reporter [1]: 162 nM | apparent KD of K4 kissing-loop reporter [2]: 169 nM

CCAUCGCUAUUCGAUACCAGCUACUUAGUGAUGUUAAGUUAAAAUCAAUUGUAGAUUGAAAGCCCUUGGCAGCGAAUAGUGAUGG [Theophylline B K4 21]
apparent KD of K4 kissing-loop reporter (input ligand: FMN 200 uM): 157 nM | apparent KD of K4 kissing-loop reporter (input ligand: arginine 13.2 mM): 123 nM | apparent KD of K4 kissing-loop reporter (input ligand: none): 139 nM | apparent KD of K4 kissing-loop reporter [1]: 83.8 nM | apparent KD of K4 kissing-loop reporter [2]: 135 nM

AAUUCCUGUUAUGAUACCAGAAAUCACAGCAACCUGCCUACCUAGUGAUGUUAGGAGAAUUUCCCUUGGCAGCAUCGACUGAAGG [theeternabot_sameState_KL_Theo_B_38]
apparent KD of K4 kissing-loop reporter (input ligand: FMN 200 uM): 147 nM | apparent KD of K4 kissing-loop reporter (input ligand: arginine 13.2 mM): 173 nM | apparent KD of K4 kissing-loop reporter (input ligand: none): 145 nM | apparent KD of K4 kissing-loop reporter [1]: 151 nM | apparent KD of K4 kissing-loop reporter [2]: 124 nM

CCAUUCUUUUACGAUACCAGUUUUAUUUAGUUAUUCAUAACCCUUGCCGAGUGAUGUUCGGACCCUUGGCAGCGUUUGCGAGAGG [zaadvmullin]
apparent KD of K4 kissing-loop reporter (input ligand: FMN 200 uM): 286 nM | apparent KD of K4 kissing-loop reporter (input ligand: arginine 13.2 mM): 299 nM | apparent KD of K4 kissing-loop reporter (input ligand: none): 355 nM | apparent KD of K4 kissing-loop reporter [1]: 411 nM | apparent KD of K4 kissing-loop reporter [2]: 272 nM

UUAGAGAUCUCAGGAUAUCAGUGAUGUUGGUGUGCAGAUCUGAGAUAGAAUUCUAUCUCAGAUCAAUGAGAAGGGAGAUCUCAUU [AK5 Exc FMN B]
apparent KD of K4 kissing-loop reporter (input ligand: FMN 200 uM): 303 nM | apparent KD of K4 kissing-loop reporter (input ligand: arginine 13.2 mM): 149 nM | apparent KD of K4 kissing-loop reporter (input ligand: none): 152 nM | apparent KD of K4 kissing-loop reporter [1]: 173 nM | apparent KD of K4 kissing-loop reporter [2]: 142 nM

CGAGUGAUGUUCGAAGAGUUGUUAAGCGAUACCAGCUAGGAGACUGGCCCUUGGCAGCGUAAUAAGUUAAUAAAUAAAUGAUCAC [whbob_Ex_Theo_A_th65]
apparent KD of K4 kissing-loop reporter (input ligand: FMN 200 uM): 293 nM | apparent KD of K4 kissing-loop reporter (input ligand: arginine 13.2 mM): 384 nM | apparent KD of K4 kissing-loop reporter (input ligand: none): 360 nM | apparent KD of K4 kissing-loop reporter [1]: 506 nM | apparent KD of K4 kissing-loop reporter [2]: 285 nM

GCGCGCGUUUUAGAUACCAGCCAGUGAUGUUGGCGAGGAUUCUGGAGCGUAGUGUCAAAUGGCCCUUGGCAGCUAACACGCGGCU [Zabea]
apparent KD of K4 kissing-loop reporter (input ligand: FMN 200 uM): 117 nM | apparent KD of K4 kissing-loop reporter (input ligand: arginine 13.2 mM): 108 nM | apparent KD of K4 kissing-loop reporter (input ligand: none): 119 nM | apparent KD of K4 kissing-loop reporter [1]: 134 nM | apparent KD of K4 kissing-loop reporter [2]: 123 nM

ACGACGGCAGCUCAGUGAUGUUGGGCAUUACGAGGACCGGUACGGCCGCCACUCGCUGCUUUGAUCCGUGGAUGAACCUCAGCAU [theeternabot_sameState_KL_Trp_A_13]
apparent KD of K4 kissing-loop reporter (input ligand: FMN 200 uM): 576 nM | apparent KD of K4 kissing-loop reporter (input ligand: arginine 13.2 mM): 464 nM | apparent KD of K4 kissing-loop reporter (input ligand: none): 601 nM | apparent KD of K4 kissing-loop reporter [1]: 734 nM | apparent KD of K4 kissing-loop reporter [2]: 402 nM

AAGGGCUAGGCGGCCGCCACUGGUCGUGUACACAUACGAGCCAGUGAUGUUGGUAUUGUGUGCGGCAGGACCGGGCCUAGCCGAA [Exclusion - Tryptophan B (Freestyle 25)]
apparent KD of K4 kissing-loop reporter (input ligand: FMN 200 uM): 410 nM | apparent KD of K4 kissing-loop reporter (input ligand: arginine 13.2 mM): 303 nM | apparent KD of K4 kissing-loop reporter (input ligand: none): 304 nM | apparent KD of K4 kissing-loop reporter [1]: 468 nM | apparent KD of K4 kissing-loop reporter [2]: 387 nM

AAUAUACAGGGAAGGAGCGCCGUCCAGUGAUGUUGGAGUUAAAUACCAGUGAUGUUGGUUAGGCAGGUAGGUCGCCCUAAAGUAU [Exclusion Arginine B Gf 2]
apparent KD of K4 kissing-loop reporter (input ligand: FMN 200 uM): 125 nM | apparent KD of K4 kissing-loop reporter (input ligand: arginine 13.2 mM): 82.7 nM | apparent KD of K4 kissing-loop reporter (input ligand: none): 105 nM | apparent KD of K4 kissing-loop reporter [1]: 102 nM | apparent KD of K4 kissing-loop reporter [2]: 96.7 nM

CGAGUGAUGUUCGUUUUAAAAUUUUUUUGACAGGAUAUGCGGAAACGCAGAAGGGUCACCUUUGAGUUAAAAGAAAUUAAAUUUU [Ex FMN 16]
apparent KD of K4 kissing-loop reporter (input ligand: FMN 200 uM): 175 nM | apparent KD of K4 kissing-loop reporter (input ligand: arginine 13.2 mM): 223 nM | apparent KD of K4 kissing-loop reporter (input ligand: none): 198 nM | apparent KD of K4 kissing-loop reporter [1]: 224 nM | apparent KD of K4 kissing-loop reporter [2]: 166 nM
